Experimental data reported in article PMC3814365 (Nucleic Acids Research, 2013).

Target: Untagged Rps28a (S. cerevisiae, UniProt Q3E7X9 1-67)
Assay: SEC-MALS

Sequence of Untagged Rps28a (Q3E7X9 whole entry): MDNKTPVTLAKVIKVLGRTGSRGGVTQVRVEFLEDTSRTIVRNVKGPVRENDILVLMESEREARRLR

- stoichiometry N: 1
B1: Edc3(201–231) lacking the His-GST tag (peptide, UniProt P39998 201-231, looked up)
chain: DDIDDPKYLPITQSLNITHLIHSATNSPSIN
